Results reported in PMC12256112.
Each block holds one molecule with its values, some of them ahead of it.

Columns and labels:
[1] = biological target: isolated Rpn11/Rpn8 heterodimer with Rpn11 A89I (S. cerevisiae) (UniProt P43588)
[2] = biological target: isolated Rpn11/Rpn8 heterodimer with Rpn11 A89F (S. cerevisiae) (UniProt P43588)
[3] = biological target: Rpn11, wild type, deubiquitinase subunit of the lid in the reconstituted 26S proteasome (S. cerevisiae) (UniProt P43588)
[4] = biological target: Rpn11 L132R, deubiquitinase subunit of the lid in the reconstituted receptor-deficient 26S proteasome (S. cerevisiae) (UniProt P43588)
[5] = biological target: Rpn11, wild type, deubiquitinase subunit of the lid in the reconstituted 26S proteasome (S. cerevisiae) (UniProt P43588); remark: listed apart in the source
[6] = biological target: Rpn11, wild type, deubiquitinase subunit of the lid in the reconstituted 26S proteasome (S. cerevisiae) (UniProt P43588); remark: listed apart in the source
[7] = biological target: Rpn11 A89F, deubiquitinase subunit of the lid in the reconstituted receptor-deficient 26S proteasome (S. cerevisiae) (UniProt P43588)
[8] = biological target: Rpt5, ATPase subunit of the base, in the reconstituted 26S proteasome (S. cerevisiae) (UniProt P33297)

Molecule: mono-ubiquitinated GS substrate (titin I27^V15P with glycine-serine-rich initiation region, one ubiquitin K63R attached) (from UniProt P0CG63 1-76)
degradation rate of the mono-ubiquitinated GS substrate by the SspB-fused ARR-Pru-ΔUIM proteasome with wild-type Rpn11, against the non-ubiquitinated GS substrate (bulk degradation assay) [3]: 0.38 min⁻¹
degradation rate of the mono-ubiquitinated GS substrate by the SspB-fused ARR-Pru-ΔUIM proteasome with Rpn11^L132R; no ubiquitin-mediated stimulation (bulk degradation assay) [4]: 0.25 min⁻¹

B1: Rpn10 with the R23E, D31K and E68K mutations in its VWA domain, as subunit of the reconstituted 26S proteasome (receptor)
chain: MVLEATVLVIDNSEYSRNGDFPETRFEAQIKSVEFIFQAKRNSNPENTVGLISGAGANPRVLSTFTAKFGKILAGLHDTQIEGKLHMATALQIAQLTLKHRQNKVQHQRIVAFVCSPISDSRDELIRLAKTLKKNNVAVDIINFGEIEQNTELLDEFIAAVNNPQEETSHLLTVTPGPRLLYENIASSPIILEEGSSGMGAFGGSGGDSDANGTFMDFGVDPSMDPELAMALRLSMEEEQQRQERLRQQQQQQDQPEQSEQPEQHQDK
SspB-delivered substrate degradation by proteasomes with Rpn10^EKK against wild-type proteasomes (bulk degradation assay) [8]: 1.6 fold
s1-to-non-s1 transition rate of proteasomes with Rpn10^EKK against wild-type proteasomes (single-molecule FRET conformational dynamics assay) [8]: 40%

Continued, values first:

deubiquitinase activity of the isolated Rpn11/Rpn8 heterodimer (0.5 μM) on 100 μM Ubiquitin-TAMRA, against wild-type Rpn11 (fluorescence polarisation, 30°C) [1]: 10 fold
deubiquitinase activity of the isolated Rpn11/Rpn8 heterodimer (0.5 μM) on 100 μM Ubiquitin-TAMRA, against wild-type Rpn11 (fluorescence polarisation, 30°C) [2]: 1.3 fold
Molecule: Ubiquitin-TAMRA

degradation rate of the GS substrate with long ubiquitin chains by SspB-fused ARR-Pru-ΔUIM proteasomes; 0.25 min^-1 for the non-ubiquitinated GS substrate (bulk degradation assay) [5]: 1 min⁻¹
Molecule: poly-ubiquitinated GS substrate (titin I27^V15P with glycine-serine-rich initiation region, long ubiquitin chains attached) (from UniProt P0CG63 1-76)

average tail-insertion time constant of the wild-type proteasome without and with unanchored K48-Ub4 (single-molecule FRET substrate-processing assay) [6]: 1.39 s
SspB-delivered substrate degradation by ARR-Pru-ΔUIM-A89F proteasomes without and with K48-Ub4 (bulk degradation assay) [7]: 1.2 fold
Molecule: unanchored K48-linked tetraubiquitin chain (from UniProt P0CG63 1-76)
